Our source for the Kd, koff and kon values is US20210284724A1 (I MAB BIOPHARMA US, published 2021).

Substitutions are numbered along the chain they refer to.

For this experiment, the target named is T1, human CXCL13 (human, UniProt O43927 23-109).
T1 construct: also called huCXCL13; rhCXCL13
T1 sequence (looked up): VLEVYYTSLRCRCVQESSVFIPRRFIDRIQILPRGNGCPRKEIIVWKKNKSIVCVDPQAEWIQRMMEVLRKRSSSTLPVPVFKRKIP
Nature of the experiment: SPR Biacore T200. The protocol:
To further optimization of 71F4-B, each Mutations in 71F4A3 useful for improving binding (Kon) were added into 71F4-B, the sequences were listed in Table 28. Antibodies according to these sequences were generated and affinity testing was performed by Biacore T200.

B1: 71F4-B-AS (antibody, V domains shown)
VH: EVQLVESGGGLVQPGGSLRLSCAASGIDFSRYWMSWVRQAPGKGLEWVAEINPEASSINYAPSLKDRFTISRDNAKNSLYLQMNSLRAEDTAVYYCARQDDYEYYTMDYWGQGTTVTVSS
VL: DIQMTQSPSSLSASVGDRVTITCKVSQDVNTGVAWYQQKPGKAPKLLIYSASYRYTGVPSRFSGSGSGTDFTFTISSLQPEDIATYYCQQYYSTPLTFGGGTKLEIK
Regarding B1, the affinity, expressed as Kd, was 0.321 nM; the koff came out at 7.25e-05 s⁻¹; the on-rate constant (kon) is 226000 M⁻¹ s⁻¹.

B2: 71F4-B-T (antibody, V domains shown)
VH: B1 VH with A55S, S57T, Y104T
VL: B1 VL
notes: also called 71F4A3-B-T
B2 had a dissociation constant (Kd) of 0.0456 nM, an off-rate (koff) of 1.17e-05 s⁻¹ and a kon of 256000 M⁻¹ s⁻¹.

B3: 71F4-B-SH (antibody, V domains shown)
VH: B1 VH with A55S, S57T, E103S, Y104H
VL: B1 VL
With B3, binding was characterised by a dissociation constant (Kd) of 0.29 nM, the koff worked out at 5.55e-05 s⁻¹ and the kon came to 192000 M⁻¹ s⁻¹.

B4: 71F4-B-ASH (antibody, V domains shown)
VH: B1 VH with E103S, Y104H
VL: B1 VL
Take B4: binding was put at a Kd of 0.521 nM, the koff stood at 9.17e-05 s⁻¹ and the association rate constant (kon) came out at 176000 M⁻¹ s⁻¹.

B5: 71F4-B-S1 (antibody, V domains shown)
VH: B1 VH with A55S
VL: B1 VL
Take B5: the Kd was 0.404 nM, the dissociation rate constant (koff) is 9.26e-05 s⁻¹ and the kon was determined as 229000 M⁻¹ s⁻¹.

B6: 71F4-B-SSH (antibody, V domains shown)
VH: B1 VH with A55S, E103S, Y104H
VL: B1 VL
In turn, B6 gave a Kd of 0.377 nM, a koff of 9.46e-05 s⁻¹ and a kon of 251000 M⁻¹ s⁻¹.

B7: 71F4-B-H (antibody, V domains shown)
VH: B1 VH with A55S, S57T, Y104H
VL: B1 VL
notes: also called 71F4A3-B-H
Take B7: the dissociation constant (Kd) is 0.0647 nM, the koff stood at 1.27e-05 s⁻¹ and the on-rate constant (kon) was found to be 197000 M⁻¹ s⁻¹.

B8: 71F4-B-L (antibody, V domains shown)
VH: B1 VH with A55S, S57T, E103L
VL: B1 VL
B8 had an equilibrium dissociation constant (Kd) of 0.443 nM, an off-rate constant (koff) of 8.58e-05 s⁻¹ and a kon of 194000 M⁻¹ s⁻¹.

B9: 71F4-B-S2 (antibody, V domains shown)
VH: B1 VH with A55S, S57T, E103S
VL: B1 VL
Regarding B9, the Kd stood at 0.52 nM, the koff turned out to be 0.000268 s⁻¹ and the kon was determined as 515000 M⁻¹ s⁻¹.

B10: 71F4-B-LT (antibody, V domains shown)
VH: B1 VH with A55S, S57T, E103L, Y104T
VL: B1 VL
notes: also called 71F4A3-B-LT
The molecule B10 returned a dissociation constant (Kd) of 0.0435 nM, a koff of 1.02e-05 s⁻¹ and an on-rate (kon) of 235000 M⁻¹ s⁻¹.
